Measured values as given in publication PMC6212398 (2018).
Read-outs that look alike come from different tables or passages of the source.

B1: T184A (peptide)
chain: EITIPVAHE
modifications: synthetic 9-mer; alanine-scan variant of the His-containing IPV peptide … (gives EITIPVAHE). The T184 label fits UniProt numbering, not the shifted numbering printed in the text. Termini not stated
B2: Hsp27 IPV H peptide (EITIPVTHE) (peptide)
peptide: EITIPVTHE
B3: Hsp27 IPV H peptide with the second X residue (Pro) of IXIXV mutated to alanine (EITIAVTHE) (peptide)
peptide: EITIAVTHE
B4: Hsp27 IPV H peptide with Ile179 mutated to alanine (peptide)
chain: EITAPVTHE
modifications: EITAPVTHE. The paper numbers the peptide from E176, so printed Ile179 (I of IPV) is UniProt I181. Peptide termini chemistry is not stated.

How the values were obtained:
Test in all cases: ITC
[1] = molecular target: T1, Hsp27 alpha-crystallin domain (ACD, residues Q80–S176) (human, UniProt P04792 80-176)
[2] = molecular target: Hsp27 GPG (isoleucine and valine of the IPV motif mutated to glycine) (human, UniProt P04792 1-205, isoleucine of the IPV (Ile179 as printed in p-0007) to glycine)
[3] = molecular target: T1, Hsp27 alpha-crystallin domain (ACD, …); remark: listed apart in the source

T1 sequence (P04792 80-176): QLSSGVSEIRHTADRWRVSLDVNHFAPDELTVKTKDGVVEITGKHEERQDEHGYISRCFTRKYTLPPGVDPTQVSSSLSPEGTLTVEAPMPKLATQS
Sequence of Hsp27 GPG (isoleucine and valine of the IPV motif mutated to glycine) (P04792 other isoform, or with tags, fused parts or gaps with the stated changes): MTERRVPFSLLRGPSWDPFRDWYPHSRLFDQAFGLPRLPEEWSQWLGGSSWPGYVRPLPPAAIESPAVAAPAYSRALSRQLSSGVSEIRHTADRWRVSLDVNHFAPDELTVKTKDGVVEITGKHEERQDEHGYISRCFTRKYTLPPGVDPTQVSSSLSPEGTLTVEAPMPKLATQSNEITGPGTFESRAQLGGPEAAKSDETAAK

| Binder | Kd [1] | Kd [2] | Kd [3] |
| --- | --- | --- | --- |
| B1 | 9.43 µM |  |  |
| B2 |  | 6.8 µM | 7.3 µM |
| B3 | 4.23 µM |  |  |
| B4 | 12.6 µM |  |  |
